# Experimental data published in publication PMC4372062 (Biochemistry, 2014).
# Molecular target: the molecule itself
# Test: native gel or EMSA
protein,measurement,value
"Fenna–Matthews–Olson antenna protein (FMO) (natural protein, UniProt Q46393 1-366, looked up) MALFGSNDVTTAHSDYEIVLEGGSSSWGKVKARAKVNAPPASPLLPADCDVKLNVKPLDPAKGFVRISAVFESIVDSTKNKLTIEADIANETKERRISVGEGMVSVGDFSHTFSFEGSVVNLFYYRSDAVRRNVPNPIYMQGRQFHDILMKVPLDNNDLIDTWEGTVKAIGSTGAFNDWIRDFWFIGPAFTALNEGGQRISRIEVNGLNTESGPKGPVGVSRWRFSHGGSGMVDSISRWAELFPSDKLNRPAQVEAGFRSDSQGIEVKVDGEFPGVSVDAGGGLRRILNHPLIPLVHHGMVGKFNNFNVDAQLKVVLPKGYKIRYAAPQYRSQNLEEYRWSGGAYARWVEHVCKGGVGQFEILYAQ",stoichiometry N,3
